The target in experiment [1] is biotinylated HER3 domain 4 with N-terminal AviTag and His6 tag (Homo sapiens). In words: SPR; ProteOn XPR36, biotinylated HER3d4 on a NeutrAvidin NLC chip; monomeric DARPins injected at 2.5, 7.5, 22, 67 and 200 nM, 60 ul/min; PBS with 0.005% Tween-20; kinetic titration model. A general note: SPR reads the build-up and loss of mass on a sensor chip optically.
Experiment [2] addresses T1, HER3 extracellular domain 4, biotinylated (N-terminal AviTag and His6 tag) (human, biotin (in vitro biotinylation, AviTag)).
T1 construct: HER3 (ErbB3) extracellular domain 4, human, residues 500-643 of UniProt entry P21860; also called HER3d4; HER3 domain 4; source: Sf9 insect cells (baculovirus), secreted, purified (IMAC, Superdex 75), biotinylated in vitro; not shown: AviTag, N-terminal, kept
T1 chain: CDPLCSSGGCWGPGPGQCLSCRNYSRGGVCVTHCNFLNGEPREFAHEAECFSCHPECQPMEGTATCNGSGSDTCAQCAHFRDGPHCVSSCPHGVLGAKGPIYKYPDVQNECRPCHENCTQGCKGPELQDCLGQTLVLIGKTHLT
In words: SPR; ProteOn XPR36, NeutrAvidin NLC chip; biotinylated HER3d4 immobilised; monomeric DARPins injected at 2.5, 7.5, 22, 67 and 200 nM (duplicates), 60 µl/min, 5 min association, 5 min dissociation; PBS with 0.005% Tween-20; kinetic titration model. The settings on record: both partners purified.

Experiment [3] deals with T2, HER3 extracellular domain 4 (HER3d4) without AviTag, deglycosylated (Homo sapiens).
T2 construct: PNGase F treatment may have turned glycosylated Asn into Asp (surmise); also called HER3 domain 4; ErbB3 domain 4; source: Sf9 (baculovirus), secreted, purified (IMAC), deglycosylated with PNGase F, ConA Sepharose
T2 chain: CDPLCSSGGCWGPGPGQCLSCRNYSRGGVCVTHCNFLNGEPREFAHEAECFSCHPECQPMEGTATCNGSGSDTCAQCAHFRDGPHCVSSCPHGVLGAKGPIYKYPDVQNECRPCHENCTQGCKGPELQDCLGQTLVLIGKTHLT
The experiment is described as follows: crystal structure; DARPin D5 incubated with HER3d4 at a 1:1.2 molar ratio, complex purified by gel filtration in PBS; sitting drop, 277 K; two crystal forms, P2(1) at 2.3 A and P2(1)2(1)2(1) at 2.0 A. The settings on record: both partners purified. A general note: Size exclusion chromatography separates by hydrodynamic size, large species first.

For experiment [4], the target named is T3, biotinylated HER3 domain 4 with N-terminal AviTag and His6 tag (Homo sapiens, biotin (in vitro biotinylation of the AviTag)).
T3 construct: also called biotinylated HER3d4; HER3d4; source: Sf9 (baculovirus), secreted, purified (IMAC, in vitro biotinylation, Superdex 75 SEC); not shown: AviTag, N-terminal, kept
T3 chain: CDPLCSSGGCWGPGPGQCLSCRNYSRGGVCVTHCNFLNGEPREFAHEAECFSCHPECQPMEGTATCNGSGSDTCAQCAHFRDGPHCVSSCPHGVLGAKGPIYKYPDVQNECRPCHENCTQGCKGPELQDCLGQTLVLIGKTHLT
The experiment is described as follows: SPR; ProteOn XPR36, biotinylated HER3d4 on a NeutrAvidin NLC chip; monomeric DARPins injected at 2.5, 7.5, 22, 67 and 200 nM, 60 ul/min; PBS with 0.005% Tween-20; kinetic titration model. The following applies: both partners purified.

B1: DARPin D6 (designed binder)
chain: GSDLGKKLLEAARAGQDDEVRILMANGADVNAQDVSGQTPLHLAAIWGHLEIVEVLLKTGADVNAWDHWGNTPLHLAAWQGHLEIVEVLLKAGTDVNAKDSEGFTPLHLAAWWGHLEIVEVLLKHGADVNAQDKFGKTPFDLAIDNGNEDIAEVLQKAAKLN
notes: N3C DARPin selected by ribosome display; source: E. coli XL1 Blue, purified (HisPur Cobalt Spin Plates)
A word on the Kd: it is a measure of binding affinity in units of concentration. Read a high Kd as lower affinity. For orientation: koff means the first-order rate constant of dissociation. As usually defined, the kon is a measure of how fast the partners come together. High values mean fast association, low ones slow association. Consider B1, for which the dissociation constant Kd in experiment [1] amounted to 4.5 nM. Besides, in experiment [2], the off-rate (koff) was found to be 0.000623 s⁻¹ and the kon was determined as 138000 M⁻¹ s⁻¹.

B2: DARPin D8 (designed binder)
chain: GSDLGKKLLEAARAGQDDEVRILMANGADVNAQDVSGQTPLHLAAIWGHLEIVEVLLKTGADVNAWDHWGNTPLHLAAWQGHLEIVEVLLKAGADVNAKDSEGFTPLHLAAWWGHLEIVEVLLKHGADVNAQDKFGKTPFDLAIDNGNEDIAEVLQKAAKLN
notes: as for B1
In experiment [2], B2 came in with a Kd of 5 nM, a koff of 0.000791 s⁻¹ and an on-rate constant (kon) of 158000 M⁻¹ s⁻¹.

B3: DARPin D4 (designed binder)
chain: GSDLGKKLLEAARAGQDDEVRILMANGADVNAFDHNGSTPLHLAAAIGHLEIVEVLLKYGADVNAEDNWGNTPLHQAAWVGHREIVEVLLKYGADVNAQDKFGKTAFDISIDNGNEDLAEILQKLN
notes: N2C DARPin selected by ribosome display; source: E. coli XL1 Blue, purified (HisPur Cobalt Spin Plates)
Take B3: in experiment [2], the Kd is 4.4 nM, the dissociation rate constant (koff) turned out to be 0.00669 s⁻¹ and the on-rate constant (kon) is 1.51e+06 M⁻¹ s⁻¹.

B4: DARPin D3 (designed binder)
chain: GSDLGKKLLEAARAGQDDEVRILMANGADVNAFDHSGSTPLHLAAAIGHLEIVEVLLKYGADVNAEDNWGNTPLHQAAWVGHREIVEVLLKYGADVNAQDKFGKTAFDISIDNGNEDLAEILQKLN
notes: as for B3
As for B4, the Kd in experiment [1] is 8.1 nM. In addition, in experiment [2], the koff is 0.0109 s⁻¹ and the kon was 1.35e+06 M⁻¹ s⁻¹.

B5: DARPin D2 (designed binder)
chain: GSDLGKKLLEAARAGQDDEVRVLMANGADVNAFDHNGSTPLHLAAAIGHLEIVEVLLKYGADVNAEDNWGNTPLHQAAWVGHREIVEVLLKYGADVNAQDKFGKTAFDISIDNGNEDLAEILQKLN
notes: as for B3
Regarding B5, in experiment [2], binding was characterised by a dissociation constant (Kd) of 5.7 nM, the koff is 0.00783 s⁻¹ and the kon is 1.37e+06 M⁻¹ s⁻¹.

B6: DARPin D1 (designed binder)
chain: GSDLGKKLLEAARAGQDDEVRILMTNGADVNAFDHNGSTPLHLAAAIGHLEIVEVLLKYGADVNAEDNWGNTPLHQAAWVGHREIVEVLLKYGVDVNAQDKFGKTAFDISIDNGNEDLAEILQKLN
notes: as for B3
In the case of B6, in experiment [2], the equilibrium dissociation constant (Kd) turned out to be 7.6 nM, the koff stood at 0.00932 s⁻¹ and the kon came out at 1.23e+06 M⁻¹ s⁻¹.

B7: DARPin D5 (His6- and FLAG-tagged form used for characterisation) (designed binder)
chain: GSDLGKKLLEAARAGQDDEVRILMANGADVNAFDHNGSTPLHLAAAIGHLEIVEVLLKYGADVNAEDNWGNTPLHQAAWVGHLEIVEVLLKNGADVNAQDKFGKTAFDISIDNGNEDLAEILQKLN
notes: as for B3
As to B7, in experiment [2], the Kd amounted to 6.9 nM, the koff is 0.00856 s⁻¹ and the kon came out at 1.25e+06 M⁻¹ s⁻¹.

B8: DARPin D5 (designed ankyrin-repeat protein D5), His6 tag removed by 3C protease (designed binder)
chain: GPGSDLGKKLLEAARAGQDDEVRILMANGADVNAFDHNGSTPLHLAAAIGHLEIVEVLLKYGADVNAEDNWGNTPLHQAAWVGHLEIVEVLLKNGADVNAQDKFGKTAFDISIDNGNEDLAEILQKLN
notes: N2C DARPin selected by ribosome display; Carries the framework mutation L86Q against the DARPin consensus; source: E. coli XL1 Blue, purified (Ni-NTA, 3C protease cleavage, reverse Ni-NTA); not shown: His6, N-terminal, cleaved
For the molecule B8, the binding result in experiment [3] was “binds”.

B9: DARPin D7 (designed binder)
chain: GSDLGKKLLEATRAGQDDEVRILMANGADVNAQDVSGQTPLHLAAIWGHLEIVEVLLKTGADVNAQDWFGETPLHLAAVQGHLEIVEVLLKTGADVNAWDAYGHTPLHLAANYGHLEIVEVLLKHGADVNAQDKFGKTPFDLAIDNGNEDIAEVLQKAAKLN
notes: as for B1
As for B9, in experiment [2], the Kd was 7.5 nM, the off-rate constant (koff) was 0.00147 s⁻¹ and the association rate constant (kon) worked out at 196000 M⁻¹ s⁻¹.

B10: DARPin D5 from the pQiq_FLAG expression vector (N-terminal His6 tag, C-terminal FLAG tag) (designed binder)
chain: DLGKKLLEAARAGQDDEVRILMANGADVNAFDHNGSTPLHLAAAIGHLEIVEVLLKYGADVNAEDNWGNTPLHQAAWVGHLEIVEVLLKNGADVNAQDKFGKTAFDISIDNGNEDLAEILQKLN
notes: DARPin D5 itself, as printed within the crystallisation construct (from Asp13); source: E. coli XL1 Blue, purified (HisPur Cobalt Spin Plates)
Regarding B10, in experiment [4], the binding result is “binds”.

The values are drawn from PMC8248824 (Acta Crystallographica. Section F, Structural Biology …, 2021).
